Assay results reported in US20240010720A1 (IOMX THERAPEUTICS, published 2024).
Numbering of substitutions follows the chain as printed. Where two headings read alike, the source gives them in different places.

T1: His-tagged extracellular domain (ECD) of human IGSF11 (VSIG3) (human, UniProt Q5DX21 23-241)
T1 construct: partly bought (SinoBiological 13094-H08H); also called IGSF11-HIS; HIS-IGSF11; not shown: HIS6 tag
T1 sequence: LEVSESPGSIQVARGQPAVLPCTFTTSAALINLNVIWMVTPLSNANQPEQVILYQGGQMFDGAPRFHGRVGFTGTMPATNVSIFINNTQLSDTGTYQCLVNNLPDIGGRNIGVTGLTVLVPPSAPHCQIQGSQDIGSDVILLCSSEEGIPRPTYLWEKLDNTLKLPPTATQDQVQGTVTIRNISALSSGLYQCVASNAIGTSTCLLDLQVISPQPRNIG

T2: IGSF11 ECD fused to murine-Fc (human; mouse, UniProt Q5DX21 23-241)
T2 construct: also called Fc-fusion IGSF11 ECD; full-length ECD of IGSF11; not shown: murine Fc
T2 sequence: T1 sequence

T3: recombinant human IGSF11 (VSIG3) extracellular domain (ECD) (human, UniProt Q5DX21 23-241, biotinylated where captured on streptavidin)
T3 construct: also called biotinylated recombinant ECD-IGSF11; IGSF11 (ECD domain)
T3 sequence: T1 sequence

B1: A-037 (IgG1 format) (antibody, V domains shown)
VH: QVQLVQSGAEVKKPGASVKVSCKASGYTFTGYYMHWVRQAPGQGLEWMGWINPNSGNTGYAQKFQGRVTMTRNTSISTAYMELSSLRSEDTAVYYCARGGQQQLVLDDYWGQGTLVTVSS
VL: NFMLTQPHSVSESPGKTVTISCTGSSGSIASNYVQWYQQRPGSAPTTVIYEDNQRPSGVPDRFSGSIDSSSNSASLTISGLKTEDEADYYCQSYDSSNQRVFGGGTKLTVL
notes: human IgG1 format
B2: A-019 (IgG1 format) (antibody, V domains shown)
VH: B1 VH
VL: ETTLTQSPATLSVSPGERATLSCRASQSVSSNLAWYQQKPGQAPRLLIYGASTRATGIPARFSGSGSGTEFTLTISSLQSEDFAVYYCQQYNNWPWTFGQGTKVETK
notes: human IgG1 format
B3: A-024 (IgG1 format) (antibody, V domains shown)
VH: QMQLVQSGAEVKKPGSSVKVSCKASGGTFSSYAISWVRQAPGQGLEWMGWISAYNGNTNYAQKLQGRVTMTTDTSTSTAYMELRSLRSDDTAVYYCASLGSYGYTGAFDIWGQGTMATVSS
VL: QSALTQPASVSGSPGQSITISCTGTSSDVGGYNYVSWYQQHPGKAPKLMIYEVSNRPSGVSNRFSGSKSGNTASLTISGLQAEDEADYYCSSYTSSSTLVVFGGGTKLTVL
notes: also called A-024-like ABP
B4: human IGSF11 (VSIG3) on cells (receptor)
chain: LEVSESPGSIQVARGQPAVLPCTFTTSAALINLNVIWMVTPLSNANQPEQVILYQGGQMFDGAPRFHGRVGFTGTMPATNVSIFINNTQLSDTGTYQCLVNNLPDIGGRNIGVTGLTVLVPPSAPHCQIQGSQDIGSDVILLCSSEEGIPRPTYLWEKLDNTLKLPPTATQDQVQGTVTIRNISALSSGLYQCVASNAIGTSTCLLDLQVISPQPRNIGLIAGAIGTGAVIIIFCIALILGAFFYWRSKNKEEEEEEIPNEIREDDLPPKCSSAKAFHTEISSSDNNTLTSSNAYNSRYWSNNPKVHRNTESVSHFSDLGQSFSFHSGNANIPSIYANGTHLVPGQHKTLVVTANRGSSPQVMSRSNGSVSRKPRPPHTHSYTISHATLERIGAVPVMVPAQSRAGSLV
B5: B-002 (chain-swapped IgG1) (antibody, V domains shown)
VH: EVQLVESGGGLIQPGGSLRLSCAASGFTVSSNYMSWVRQAPGKGLEWVSVIYSGGSTYYADSVKGRFTISRDNSKNTLYLQMNSLRAEDTAVYYCARGNPYYYGDLQVNFDYWGQGTLVTVSS
VL: QAVVTQEPSLTVSPGGTVTLTCASSTGAVTSGYYPNWFQQKPGQAPRALIYSTSNKHSWTPARFSGSLLGGKAALTLSGVQPEDEAEYYCLLYYGGAWVFGGGTKLTVL
notes: human IgG1 format; also called B2
B6: A-006 (IgG1 format) (antibody, V domains shown)
VH: B5 VH
VL: B5 VL with A48P, E83D, A97D
notes: human IgG1 format; also called A-006-like ABP
B7: B-004 (chain-swapped IgG1) (antibody, V domains shown)
VH: B5 VH with V5L, A24V
VL: B5 VL with A48P, E83D, A97D
notes: human IgG1 format; also called B4
B8: B-001 (chain-swapped IgG1) (antibody, V domains shown)
VH: B5 VH with V5L, A24V
VL: B5 VL with G32A, E87D
notes: human IgG1 format; also called B1

Legend:
[1] = molecular target: T1, His-tagged extracellular domain (ECD) …; test: ELISA, IgG1
[2] = molecular target: T2, IGSF11 ECD fused to murine-Fc; test: ELISA, IgG
Text: (§1) Expi293 cells (ThermoFisher) were transiently transfected with DNA sequences encoding the applicable IGSF11 domain-mFc fusions according to the manufacturer's instructions, and cultured under conditions suitable to the IGSF11 domain fusion. Cell supernatants were harvested 5 days post transfection and the expressed Fc-protein purified via Protein A affinity chromatography (GE Healthcare). IGSF11 domain Fc-fusion proteins were re-buffered into PBS pH7.4. […] The surface was blocked with 2% (w/v) skim milk powder in PBST. After three wash cycles with PBST, a dilution series of IgG-format ABPs was transferred to the immobilized the Fc-fusion IGSF11 ECD or the IGSF11 domains and incubated for 1 h. After removing all unbound antibodies by 3 wash cycles with PBST, bound IgG ABPs were detected with a goat anti-human IgG antibody conjugated with horseradish peroxidase. After three wash cycles with PBST the ELISA was developed with TMB substrate.

[3] = molecular target: B4; test: FACS, DMS 273 cells
[4] = molecular target: T2, IGSF11 ECD fused to murine-Fc; test: ELISA: IgG titrated on coated murine-Fc fusion of IGSF11 ECD; x axis IgG nM, y axis absorption per legend
Text: as §1

[5] = molecular target: T3, recombinant human IGSF11 (VSIG3) …; test: SPR, IgG1
[6] = molecular target: T1, His-tagged extracellular domain (ECD) …; test: ELISA EC50 grade, IgG1
[7] = molecular target: T4, scFv-Fc-format of antibody A-015; test: FACS on monocytes (CD14 gate) from PBMC of healthy volunteer A, labelled secondary antibody; x axis IGSF11 signal
T4 construct: scFv genetically fused to mouse IgG2A Fc; also called anti-IGSF11 scFv-Fc (mouse IgG2A)

[8] = molecular target: B4; test: FACS, IgG1-format antibodies; DMS 273 cells (D) treated with IGSF11 siRNA (KD)
[9] = molecular target: B4; test: FACS, IgG1-format antibodies; M579-A2-luc cells (M) treated with scrambled control siRNA (SC)
[10] = molecular target: B4; test: FACS, IgG1-format antibodies; CL-11 cells (C), a line that does not express IGSF11 (specificity control), IGSF11 siRNA (KD)
[11] = molecular target: B4; test: FACS, IgG1-format antibodies; CL-11 cells (C), a line that does not express IGSF11 (specificity control), scrambled control siRNA (SC)
[12] = molecular target: T1, His-tagged extracellular domain (ECD) …; test: blocking ELISA: antibody pre-incubated with His-tagged IGSF11 ECD, complexes added to immobilised VSIR-Fc; y axis % remaining IGSF11 binding to VSIR, x axis nM IgG per legend
[13] = molecular target: T3, recombinant human IGSF11 (VSIG3) …; test: SPR, IgG1; remark: listed apart in the source
[14] = molecular target: B4; test: FACS, HEK cells expressing IGSF11
[15] = molecular target: B4; test: FACS, IgG1-format antibodies; DMS 273 cells (D) treated with scrambled control siRNA (SC)
[16] = molecular target: B4; test: FACS, IgG1-format antibodies; M579-A2-luc cells (M) treated with IGSF11 siRNA (KD)
[17] = molecular target: T1, His-tagged extracellular domain (ECD) …; test: ELISA: IgG1-format antibody titrated on coated His-tagged IGSF11; x axis nM IgG, y axis absorbance per legend
[18] = molecular target: T2, IGSF11 ECD fused to murine-Fc; test: ELISA: IgG titrated on coated murine-Fc fusion of IGSF11 ECD; x axis IgG nM, y axis absorption per legend; remark: listed apart in the source
Text: as §1

[19] = molecular target: T3, recombinant human IGSF11 (VSIG3) …; test: BLI, apparent affinity, IgG captured, IGSF11 ECD 100 nM
Text: Briefly, various APBs were loaded on an optical biosensor via a commercially available Capture System (AHC sensors, ForteBio).

[20] = molecular target: T1, His-tagged extracellular domain (ECD) …; test: ELISA: IgG1-format antibody titrated on coated His-tagged IGSF11; x axis nM IgG, y axis absorbance per legend; remark: listed apart in the source
[21] = molecular target: T3, recombinant human IGSF11 (VSIG3) …; test: BLI, IgG1
[22] = molecular target: T1, His-tagged extracellular domain (ECD) …; test: blocking ELISA: antibody pre-incubated with His-tagged IGSF11 ECD, complexes added to immobilised VSIR-Fc; y axis % remaining IGSF11 binding to VSIR, x axis nM IgG per legend; remark: listed apart in the source
[23] = molecular target: T1, His-tagged extracellular domain (ECD) …; test: blocking ELISA: IgG pre-incubated with His-tagged IGSF11 ECD, complexes added to immobilised VSIR-Fc; y axis % remaining IGSF11 binding, x axis IgG nM per legend
Experimental: All binding steps were for 1 hour at room temperature, and all washing steps were three times washing with PBS/Tween (0.05%).

[24] = molecular target: T1, His-tagged extracellular domain (ECD) …; test: blocking ELISA: antibody pre-incubated with His-tagged IGSF11 ECD, complexes added to immobilised VSIR-Fc; y axis % remaining IGSF11 binding to VSIR, x axis nM IgG per legend; remark: listed apart in the source

T4 sequence (VL, as listed by the source): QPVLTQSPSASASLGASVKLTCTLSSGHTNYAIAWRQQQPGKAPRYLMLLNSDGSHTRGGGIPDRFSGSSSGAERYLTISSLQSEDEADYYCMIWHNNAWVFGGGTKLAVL

Binder: B1
- binding result [1]: binds

Binder: B2
- binding result [1]: binds

Binder: B3
- EC50 [2]: < 1 nM
- EC50 [3]: < 10 nM
- EC50 (read off the curve) [4]: ~0.4 nM
- Kd [5]: > 500 nM
- EC50 [6]: 0.02 to 0.05 nM

Binder: B4
- binding result [7]: binds

Binder: B5
- percentage binding (FACS heat-map) [8]: 8.68%
- percentage binding (FACS heat-map) [9]: 70.7%
- EC50 [3]: > 50 nM
- percentage binding (FACS heat-map) [10]: 4.54%
- percentage binding (FACS heat-map) [11]: 3%
- IC50 (read off the curve) [12]: ~4 nM
- Kd [13]: 100 to 250 nM
- EC50 [14]: 10 to 50 nM
- percentage binding (FACS heat-map) [15]: 80.1%
- percentage binding (FACS heat-map) [16]: 2.77%
- EC50 (read off the curve) [17]: ~0.01 nM

Binder: B6
- percentage binding (FACS heat-map) [8]: 5.72%
- EC50 [2]: < 1 nM
- percentage binding (FACS heat-map) [9]: 75.3%
- EC50 (read off the curve) [18]: ~0.5 nM
- Kd [19]: < 15 nM
- EC50 [3]: > 50 nM
- percentage binding (FACS heat-map) [10]: 3.04%
- percentage binding (FACS heat-map) [11]: 2.31%
- Kd [5]: 250 to 500 nM
- EC50 [14]: 10 to 50 nM
- EC50 [6]: < 0.02 nM
- percentage binding (FACS heat-map) [15]: 81.1%
- percentage binding (FACS heat-map) [16]: 2.59%
- EC50 (read off the curve) [20]: ~0.01 nM
- Kd [21]: 1 to 10 nM
- IC50 (read off the curve) [22]: ~4 nM
- IC50 (read off the curve) [23]: ~4 nM

Binder: B7
- IC50 (read off the curve) [12]: ~5 nM
- EC50 (read off the curve) [17]: ~0.02 nM

Binder: B8
- IC50 (read off the curve) [24]: ~2 nM
- Kd [13]: 250 to 500 nM
- EC50 [14]: 10 to 50 nM
